Reference: article doi:10.1101/2020.08.23.263558 (bioRxiv, 2020)

Target: the molecule itself
Test: cryo-EM structure

B1: full length human Top2α (1-1531) (enzyme)
chain: MEVSPLQPVNENMQVNKIKKNEDAKKRLSVERIYQKKTQLEHILLRPDTYIGSVELVTQQMWVYDEDVGINYREVTFVPGLYKIFDEILVNAADNKQRDPKMSCIRVTIDPENNLISIWNNGKGIPVVEHKVEKMYVPALIFGQLLTSSNYDDDEKKVTGGRNGYGAKLCNIFSTKFTVETASREYKKMFKQTWMDNMGRAGEMELKPFNGEDYTCITFQPDLSKFKMQSLDKDIVALMVRRAYDIAGSTKDVKVFLNGNKLPVKGFRSYVDMYLKDKLDETGNSLKVIHEQVNHRWEVCLTMSEKGFQQISFVNSIATSKGGRHVDYVADQIVTKLVDVVKKKNKGGVAVKAHQVKNHMWIFVNALIENPTFDSQTKENMTLQPKSFGSTCQLSEKFIKAAIGCGIVESILNWVKFKAQVQLNKKCSAVKHNRIKGIPKLDDANDAGGRNSTECTLILTEGDSAKTLAVSGLGVVGRDKYGVFPLRGKILNVREASHKQIMENAEINNIIKIVGLQYKKNYEDEDSLKTLRYGKIMIMTDQDQDGSHIKGLLINFIHHNWPSLLRHRFLEEFITPIVKVSKNKQEMAFYSLPEFEEWKSSTPNHKKWKVKYYKGLGTSTSKEAKEYFADMKRHRIQFKYSGPEDDAAISLAFSKKQIDDRKEWLTNFMEDRRQRKLLGLPEDYLYGQTTTYLTYNDFINKELILFSNSDNERSIPSMVDGLKPGQRKVLFTCFKRNDKREVKVAQLAGSVAEMSSYHHGEMSLMMTIINLAQNFVGSNNLNLLQPIGQFGTRLHGGKDSASPRYIFTMLSSLARLLFPPKDDHTLKFLYDDNQRVEPEWYIPIIPMVLINGAEGIGTGWSCKIPNFDVREIVNNIRRLMDGEEPLPMLPSYKNFKGTIEELAPNQYVISGEVAILNSTTIEISELPVRTWTQTYKEQVLEPMLNGTEKTPPLITDYREYHTDTTVKFVVKMTEEKLAEAERVGLHKVFKLQTSLTCNSMVLFDHVGCLKKYDTVLDILRDFFELRLKYYGLRKEWLLGMLGAESAKLNNQARFILEKIDGKIIIENKPKKELIKVLIQRGYDSDPVKAWKEAQQKVPDEEENEESDNEKETEKSDSVTDSGPTFNYLLDMPLWYLTKEKKDELCRLRNEKEQELDTLKRKSPSDLWKEDLATFIEELEAVEAKEKQDEQVGLPGKGGKAKGKKTQMAEVLPSPRGQRVIPRITIEMKAEAEKKNKKKIKNENTEGSPQEDGVELEGLKQRLEKKQKREPGTKTKKQTTLAFKPIKKGKKRNPWSDSESDRSSDESNFDVPPRETEPRRAATKTKFTMDLDSDEDFSDFDEKTDDEDFVPSDASPPKTKTSPKLSNKELKPQKSVVSDLEADDVKGSVPLSSSPPATHFPDETEITNPVPKKNVTVKKTAAKSQSSTSTTGAKKRAAPKGTKRDPALNSGVSQKPDPAKTKNRRKRKPSTSDDSDSNFEKIVSKAVTSKKSKGESDDFHMDFDSAVAPRAKSVRAKKPIKYLEESDEDDLF
- stoichiometry N: 2
